According to patent US20200121775A1:

Biological target: HLA A02:01 class I molecule with β2-microglobulin (human)
Test: REVEAL MHC class I binding/stabilization assay (ProImmune)

For positive control peptide (REVEAL assay), the REVEAL Score was 100 score.
